Substitutions are numbered along the chain they refer to.
T1: recombinant protein TCRVB 6-5 (human, captured on a Biotin CAP sensor chip, so presumably biotinylated; the site is not stated)
T1 construct: also called TCRVβ 6-5; TCRβ V6-5*01
T1 TCR beta: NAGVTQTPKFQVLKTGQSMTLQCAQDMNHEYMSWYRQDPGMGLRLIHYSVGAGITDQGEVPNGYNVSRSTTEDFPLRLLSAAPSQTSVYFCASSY

B1: A-H.52 (scFv)
scFv: QVQLVQSGAEVKKPGSSVKVSCKASGYSFTLGYIHWVRQAPGQGLEWMGWFFPGSGNIKYNEKFKGRVTITADTSTSTAYMELSSLRSEDTAVYYCAGSYYSYDVLDYWGQGTTVTVSSGGGGSGGGGSGGGGSGGGGSDIQMTQSPSFLSASVGDRVTITCKASQNVGINVVWHQQKPGKAPKALIYSSSHRYSGVPSRFSGSGSGTEFTLTISSLQPEDFATYFCQQFKSYPLTFGQGTKLEIK
notes: also called phage clone; monovalent scFv
B2: A-H.53 (scFv)
scFv: B1 scFv with T30R, G32T
notes: Described only as a phage clone; also called phage clone
B3: A-H.54 (scFv)
scFv: B1 scFv with T30H, L31N, G32W
notes: as for B2

Target: T1, recombinant protein TCRVB 6-5
Assay: SPR, compared with BJM0277
Protocol: (§1) TCRVB 6-5 at 5 μg/mL was immobilized on a Biotin CAP Series S Sensor Chip to 60 RU. A-H.52 was diluted to 50 nM and then serially diluted two fold. Association was 120 seconds, dissociation was 300 seconds. This assay was run in 1×HBS-EP+ Buffer pH 7.4 and 25C. The data was fit using a 1:1 binding model. A-H.52 is a phage clones and is a monovalent scFv. A-H.52 has two mutations on CDRH1.
(§2) TCRVB 6-5 at 5 ug/mL was immobilized on a Biotin CAP Series S Sensor Chip to 60 RU. A-H.53 was diluted to 50 nM and then serially diluted two fold. Association was 120 seconds, dissociation was 300 seconds. This assay was run in 1×HBS-EP+ Buffer pH 7.4 and 25C. The data was fit using a 1:1 binding model. A-H.53 (phage clone) affinity is in the pM range (Table 16).
as §1, with “A-H.54” for “A-H.52”, “model.” for “model. A-H.52 is a phage clones and is a monovalent scFv. A-H.52 has two mutations on CDRH1.”

Binder | fold greater affinity than BJM0277
B1 | 20 fold
B2 | 200 fold
B3 | 17 fold

Target: T1, recombinant protein TCRVB 6-5
Assay: SPR, TCRVB 6-5 captured on Biotin CAP Series S chip, 1:1 model, 25C
Protocol: as §1, §2
as §1, with “A-H.54” for “A-H.52”, “model.” for “model. A-H.52 is a phage clones and is a monovalent scFv. A-H.52 has two mutations on CDRH1.”

Binder | Kd
B1 | 1.76 nM
B2 | 0.165 nM
B3 | 2.22 nM
